Measured values reported in patent publication US20200240995A1, “KDAC VARIANTS AND USES THEREOF” (Max-Planck-Gesellschaft Zur Forderung Der Wissenschaften …, priority 2017, published 2020).

Tested on: Firefly luciferase modified at K529
Experiment: Dual luciferase reporter (DLR) assay in E. coli whole cell lysates
Format: cell-based
Conditions: normalized to Renilla luciferase, relative to wild-type CobB; for DLR activity [rel. to wild-type], AcK: AcK at K529; for DLR activity [rel. to wild-type], AlocK: AlocK at K529; for DLR activity [rel. to wild-type], BocK: BocK at K529; for DLR activity [rel. to wild-type], CrK: CrK at K529
Description: FIG. 3: Evolved CobB variants can activate Firefly luciferase modified at K529. Dual luciferase reporter (DLR) assays were performed with E. coli producing DLR with the indicated modification of K529 in the Firefly enzyme. Activities were normalized to genetically fused Renilla luciferase and plotted relative to the activity observed for wild-type CobB on the same substrate. A) CobB mutant able to discriminate crotonyl-over acetyl-lysine. B) CobB mutants active against protected forms of lysine.
The mutants isolated in the selections were tested using Firefly dual luciferase assays. E. coli DH10B ΔpyrF ΔcobB were transformed with plasmids expressing Firefly luciferase with the relevant modification on lysine-529 and the cobB mutants. Luciferase activity was tested directly in whole cell lysates and compared to the activity of wild-type cobB towards the modifications. The activities observed for the evolved KDAC variants correlated well with the activities observed in the uracil selections (FIG. 3).

Molecule | DLR activity [rel. to wild-type], AcK | DLR activity [rel. to wild-type], AlocK | DLR activity [rel. to wild-type], BocK | DLR activity [rel. to wild-type], CrK
Debocylase-1: E. coli CobB mutant I131V V148L (protein, Debocylase-1, E. coli CobB mutant I131V V148L) KPRVLVLTGAGISAESGIRTFRAADGLWEEHRVEDVATPEGFDRDPELVQAFYNARRRQLQQPEIQPNAAHLALAKLQDALGDRFLLVTQNVDNLHERAGNTNVIHMHGELLKVRCSQSGQVLDWTGDVTPEDKCHCCQFPAPLRPHLVWFGEMPLGMDEIYMALSMADIFIAIGTSGHVYPAAGFVHEAKLHGAHTVELNLEPSQVGNEFAEKYYGPASQVVPEFVEKLLKGLKAGSIA | 1.25 rel. to wild-type | 8.35 rel. to wild-type | 8.65 rel. to wild-type | 2.90 rel. to wild-type
Dealocase-1: E. coli CobB mutant A37S Y53W R56W I92V (protein, Dealocase-1, E. coli CobB mutant A37S Y53W R56W I92V) KPRVLVLTGAGISAESGIRTFRAADGLWEEHRVEDVSTPEGFDRDPELVQAFWNAWRRQLQQPEIQPNAAHLALAKLQDALGDRFLLVTQNVDNLHERAGNTNVIHMHGELLKVRCSQSGQVLDWTGDVTPEDKCHCCQFPAPLRPHVVWFGEMPLGMDEIYMALSMADIFIAIGTSGHVYPAAGFVHEAKLHGAHTVELNLEPSQVGNEFAEKYYGPASQVVPEFVEKLLKGLKAGSIA | 0.49 rel. to wild-type | 10.83 rel. to wild-type | 2.88 rel. to wild-type | 5.73 rel. to wild-type
Decrotonylase-1: E. coli CobB mutant A37R Y53G R56T I92R V148L (protein, Decrotonylase-1, E. coli CobB mutant A37R Y53G R56T I92R V148L) KPRVLVLTGAGISAESGIRTFRAADGLWEEHRVEDVRTPEGFDRDPELVQAFGNATRRQLQQPEIQPNAAHLALAKLQDALGDRFLLVTQNRDNLHERAGNTNVIHMHGELLKVRCSQSGQVLDWTGDVTPEDKCHCCQFPAPLRPHLVWFGEMPLGMDEIYMALSMADIFIAIGTSGHVYPAAGFVHEAKLHGAHTVELNLEPSQVGNEFAEKYYGPASQVVPEFVEKLLKGLKAGSIA | 0.00 rel. to wild-type | 0.02 rel. to wild-type | 0.04 rel. to wild-type | 0.10 rel. to wild-type
Dealocase-2: E. coli CobB mutant A37G R56G I92V (protein, Dealocase-2, E. coli CobB mutant A37G R56G I92V) KPRVLVLTGAGISAESGIRTFRAADGLWEEHRVEDVGTPEGFDRDPELVQAFYNAGRRQLQQPEIQPNAAHLALAKLQDALGDRFLLVTQNVDNLHERAGNTNVIHMHGELLKVRCSQSGQVLDWTGDVTPEDKCHCCQFPAPLRPHVVWFGEMPLGMDEIYMALSMADIFIAIGTSGHVYPAAGFVHEAKLHGAHTVELNLEPSQVGNEFAEKYYGPASQVVPEFVEKLLKGLKAGSIA | 1.19 rel. to wild-type | 10.23 rel. to wild-type | 0.77 rel. to wild-type | 2.11 rel. to wild-type
Dealocase-3: E. coli CobB mutant I131S V148L (protein, Dealocase-3, E. coli CobB mutant I131S V148L) KPRVLVLTGAGISAESGIRTFRAADGLWEEHRVEDVATPEGFDRDPELVQAFYNARRRQLQQPEIQPNAAHLALAKLQDALGDRFLLVTQNSDNLHERAGNTNVIHMHGELLKVRCSQSGQVLDWTGDVTPEDKCHCCQFPAPLRPHLVWFGEMPLGMDEIYMALSMADIFIAIGTSGHVYPAAGFVHEAKLHGAHTVELNLEPSQVGNEFAEKYYGPASQVVPEFVEKLLKGLKAGSIA | 0.35 rel. to wild-type | 6.00 rel. to wild-type | 0.65 rel. to wild-type | 1.00 rel. to wild-type
